From article PMC7432317, “Structural Analysis of the SANT/Myb Domain of FLASH and YARP Proteins and Their Complex with the C-Terminal Fragment of NPAT by NMR Spectroscopy and Computer Simulations” (International Journal of Molecular Sciences, 2020) come the findings set out here.

The assay has as its target T1, C-terminal fragment of FLICE-associated huge protein (FLASH), residues 1923-1982 (human, UniProt Q9UKL3 1923-1982).
T1 construct: FLASH (FLICE-associated huge protein), residues 1923-1982; residue 1982 is the C-terminal amino acid of the protein; Uniformly 15N- or 13C,15N-labelled for NMR; also called FLASH fragment; SANT/Myb domain of FLASH; source: E. coli BL21 (DE3), pET28a, minimal M9 media, purified (nickel beads, SEC Superdex 75)
T1 sequence (looked up): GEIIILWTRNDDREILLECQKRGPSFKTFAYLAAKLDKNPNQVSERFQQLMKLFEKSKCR
Kind of assay: NMR titration; 1H-15N HSQC of 15N-labelled FLASH fragment (300 uM) with step-wise addition of the NPAT peptide (150 uM, two fold molar excess of FLASH analysed; equimolar mixtures precipitated); 25 mM TRIS-HCl, 200 mM KCl, pH 6.2, 50 mM Arg+Glu, 40 mM TCEP, 298 K. As to conditions: both partners purified.

B1: NPAT peptide, the last 31 residues of NPAT (1397-1427) (peptide)
peptide: KKKKIKKKKLPSSFPAGMDVDKFLLSLHYDE
notes: Free N-terminus, carboxyl at C-terminus; also called C-terminal NPAT peptide; source: synthetic peptide (Fmoc solid phase synthesis, RP-HPLC purified)
B1: the binding result was “binds”.
